Test results taken from US20250276081A1, “Mucin-Active Proteases and Methods of Use” (priority 2022, published 2025).

Tests used:
[1] = tested on: leukemia cell lines (K562, CCRF-CEM, CCRF-HSB-2); experiment: NK cell killing assay with mucinase-treated leukemia cell lines; assay type: cell-based, human
Description: NK cell isolation. PBMC aliquots were quickly thawed and diluted in 10 mL of RPMI containing DNAase to break up cell aggregates. Cells were incubated at 5% CO2, 37° C. for 30 min and subsequently counted in duplicate. Cells were then spun down at 600× g and resuspended in RPMI to a final cell concentration of 50×10^6 cells/mL. Isolation of NK cells was performed according to manufacturer's instructions using an NK cell magnetic isolation kit (Stem Cell Technologies). NK cells were cultured for at least 24 h before conducting experiments. For killing experiments, NK cells were cultured for 24 h in complete media containing 0.2-0.5 μg/mL IL-2 (BioLegend).
NK cell killing assays. Target cells were harvested by centrifugation and resuspended in serum-free RPMI containing 5 μM Cell Tracker Far Red (Thermo Fisher Scientific) at 5×10^5 cells/mL. Cells were then incubated for 30 min at 37° C.; where indicated, cells were treated with […] StcE. Following staining and StcE treatment, cells were spun down, washed twice with PBS containing 1 mM EDTA, and resuspended in complete media. Cells were diluted to 1×10^5 cells/mL in complete media containing 100 nM Sytox Green, and 100 μL of cell suspension was aliquoted into a flat bottom 96-well plate. Separately, NK cells were diluted to various cell concentrations to generate the indicated effector: target ratios in complete media containing 100 nM Sytox Green. Where indicated, these cell suspensions were treated with 20 nM StcE for 30 min, washed twice with PBS containing 1 mM ETDA, and resuspended in complete media containing 100 nM Sytox Green. 100 μL of these cell suspensions was then mixed with the target cell suspensions to generate a total volume of 200 μL. Cells were incubated at 37° C. for 4 h and analyzed by flow cytometry.

[2] = tested on: MCF10A cells expressing MUC1 ectodomain; experiment: MCF10A^MUC1 suspension survival assay; assay type: cell-based
Description: MCF10A^MUC1 suspension survival assay. MCF10A cells expressing a cytoplasmic truncation 5 of MUC1 (MUC1ΔCT, also referred to as MUC1 ectodomain) were used to limit any possible cytoplasmic signaling^1. MUC1ΔCT was induced with 200 ng/ml doxycycline for 24 h. Uninduced and induced cells were seeded at 3×10^5 cells/well in a 24-well ultra-low attachment plate (Corning) in 0.75 mL of complete media. 200 ng/mL doxycycline and 10 nM StcE were added as appropriate. The plate was incubated at 37° C., 5% CO2, 125 rpm. At t=0, 24, 48, and 72 h, cells were spun down at 350×g for 5 min, resuspended in 200 μL of phosphate-buffered saline (PBS) with 0.1% benzonase (Sigma-Aldrich), and incubated at room temperature for 15 min. Cells were then resuspended in 200 μL of enzyme-free cell dissociation buffer (Thermo Fisher Scientific) and stained with 100 nM Calcein AM (Thermo Fisher Scientific) and 5 nM Sytox Red Dead Cell Stain (Thermo Fisher Scientific) for 20 min at 4° C., prior to analysis using a BD Accuri C6 plus. Videos of MCF10A^MUC1 cells freshly seeded on standard tissue culture plates (Corning) and treated with and without 1 nM StcE were generated with images taken at 30 min intervals for 18 h using an Incucyte. The Incucyte was set to 37° C. and 5% CO2, and cells were incubated in complete media with 200 ng/ml doxycycline.

[3] = In vivo toxicity of StcE (maximum tolerated dose, necropsy); design: species or system mouse
Description: In vivo toxicity studies. 10-week-old C57BL/6 mice (bred in-house) were injected with PBS or StcE (0.15 mg/kg or 15 mg/kg) via intravenous injection. 9-week-old female BALB/cJ mice (Jackson Labs) were injected with PBS or 10 mg/kg αHER2-eStcE via intraperitoneal injection. Mice were submitted to the Animal Diagnostic Lab at Stanford University for necropsy and complete blood count (CBC) analyses 3 h post injection.

[4] = target: T1, cell surface MUC1 on HeLa cells (Homo sapiens, UniProt P15941); experiment: In cellulo MUC1 cleavage activity assay; assay type: cell-based
T1 construct: subjected to flow cytometry for cell surface MUC1; endogenous in cells; host or cells: HeLa
Description: Combinations of domain deletions and single point mutations yielded a total of eleven mutants for characterization, with expression yields ranging from 20-100 mg/L (Methods and FIG. 15B). In vitro activity against recombinant mucin substrates was quantified by densitometry following SDS-PAGE (FIG. 2b-c and FIG. 15C). […] To determine effective dissociation constants (Kd) of the mutants, cells were treated with the same concentrations of enzymes for 30 mins at 4° C. in the presence of the metal chelator and metalloprotease inhibitor EDTA, to prevent enzyme activity. In the latter case, binding was quantified via interaction of an anti-His tag antibody with the His-tagged mutants (FIG. 2d,g-h and FIG. 15f-g).
In cellulo MUC1 cleavage activity assay. Hela cells resuspended at 4.5-5.0×10^5 cells in 150 μL of complete media were allocated per well to a 96-well ultra-low attachment round bottom plate (Corning). 50 μL of the different StcE mutants in PBS were added to the wells, and the plate was incubated at 37° C. for 1 h. […] For data analysis, the Alexa Fluor 647 mean fluorescence intensity of unstained and PBS-treated samples were used to define 0% and 100% cell surface MUC1, respectively, and each sample was normalized to percent MUC1 within each replicate. […]

T1 sequence (P15941 24-1255): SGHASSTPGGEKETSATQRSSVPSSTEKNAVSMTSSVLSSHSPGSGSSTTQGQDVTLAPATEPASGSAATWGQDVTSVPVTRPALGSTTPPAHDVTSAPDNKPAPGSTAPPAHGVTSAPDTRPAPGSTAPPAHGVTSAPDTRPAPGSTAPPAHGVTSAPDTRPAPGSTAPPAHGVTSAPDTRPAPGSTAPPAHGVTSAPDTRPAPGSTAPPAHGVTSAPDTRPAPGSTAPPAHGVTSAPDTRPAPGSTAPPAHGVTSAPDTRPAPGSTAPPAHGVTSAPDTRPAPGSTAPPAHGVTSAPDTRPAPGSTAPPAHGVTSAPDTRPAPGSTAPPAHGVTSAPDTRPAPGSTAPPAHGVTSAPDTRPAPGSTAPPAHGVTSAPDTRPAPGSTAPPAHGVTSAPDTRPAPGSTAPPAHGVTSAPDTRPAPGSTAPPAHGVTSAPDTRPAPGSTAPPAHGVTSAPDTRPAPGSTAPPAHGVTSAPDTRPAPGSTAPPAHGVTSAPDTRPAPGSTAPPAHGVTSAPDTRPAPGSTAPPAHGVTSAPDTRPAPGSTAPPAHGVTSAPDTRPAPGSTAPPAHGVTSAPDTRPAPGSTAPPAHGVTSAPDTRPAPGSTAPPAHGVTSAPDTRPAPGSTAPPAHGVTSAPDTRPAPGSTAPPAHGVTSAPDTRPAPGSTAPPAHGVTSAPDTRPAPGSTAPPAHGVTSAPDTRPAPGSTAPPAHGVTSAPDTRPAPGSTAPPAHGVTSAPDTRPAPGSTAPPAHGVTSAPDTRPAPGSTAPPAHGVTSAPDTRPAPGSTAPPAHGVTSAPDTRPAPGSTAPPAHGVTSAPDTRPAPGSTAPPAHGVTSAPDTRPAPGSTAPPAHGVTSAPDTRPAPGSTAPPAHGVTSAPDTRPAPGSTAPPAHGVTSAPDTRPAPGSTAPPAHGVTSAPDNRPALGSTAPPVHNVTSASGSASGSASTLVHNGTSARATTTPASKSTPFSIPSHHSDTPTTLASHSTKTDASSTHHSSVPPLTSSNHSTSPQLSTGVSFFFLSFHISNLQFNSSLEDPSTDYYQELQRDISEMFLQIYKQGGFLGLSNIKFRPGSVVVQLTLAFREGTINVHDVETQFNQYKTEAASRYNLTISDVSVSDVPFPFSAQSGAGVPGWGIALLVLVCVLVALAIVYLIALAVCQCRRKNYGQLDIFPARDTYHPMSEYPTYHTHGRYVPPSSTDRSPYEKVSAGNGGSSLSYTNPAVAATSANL

## StcE: secreted protease of C1 esterase inhibitor, zinc metalloprotease pan mucinase from E. coli O157:H7; SEQ ID NO:1
[1]; NK cells treated with StcE
  NK cell killing after StcE treatment of the NK cells: no effect relative to untreated control
[1]; target cells treated with StcE, 4 h with NK cells
  NK cell killing of StcE-treated leukemia cells: increased NK cell surveillance
[1]; without NK cells, n=3
  Cytotoxicity of StcE treatment of leukemia cell lines: statistically significant baseline toxicity increase
[2]; 10 nM StcE, ultralow attachment plates, over 72 h
  Viability of MUC1-overexpressing cells under anchorage-free conditions: rapid cell death
[2]; nanomolar doses (1 nM StcE)
  Toxicity to MUC1-expressing cells in standard tissue culture plates: low toxicity
[3]; 3 hours post injection of 15 mg/kg StcE I.V.
  Necropsy and CBC findings: hemorrhages underneath the skull, ecchymoses throughout the gastrointestinal tract, neutrophil accumulation in the lungs, and platelet depletion
[3]; Balb/c and C57BL/6 mice
  Maximum tolerated dose: 0.25 mg/kg
[3]; doses higher than 0.25 mg/kg
  Toxicity above the maximum tolerated dose: systemic toxicity
[4]
  Concentration at which the enzyme is active: single digit nanomolar
